# Assay results from PMC11182772, “A non-canonical role of the inner kinetochore in regulating sister-chromatid cohesion at centromeres” (The EMBO Journal, 2024).
# T1: GST-Scc1 (281–420)-SA2 (80–1060) sub-complex (UniProt O60216 281-420; Q8N3U4 80-1060)
# T1 sequence (looked up) 1: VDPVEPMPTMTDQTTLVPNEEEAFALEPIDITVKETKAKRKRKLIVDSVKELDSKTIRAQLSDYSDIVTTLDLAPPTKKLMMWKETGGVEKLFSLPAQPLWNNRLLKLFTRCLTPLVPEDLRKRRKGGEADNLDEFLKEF
# T1 sequence (looked up) 2: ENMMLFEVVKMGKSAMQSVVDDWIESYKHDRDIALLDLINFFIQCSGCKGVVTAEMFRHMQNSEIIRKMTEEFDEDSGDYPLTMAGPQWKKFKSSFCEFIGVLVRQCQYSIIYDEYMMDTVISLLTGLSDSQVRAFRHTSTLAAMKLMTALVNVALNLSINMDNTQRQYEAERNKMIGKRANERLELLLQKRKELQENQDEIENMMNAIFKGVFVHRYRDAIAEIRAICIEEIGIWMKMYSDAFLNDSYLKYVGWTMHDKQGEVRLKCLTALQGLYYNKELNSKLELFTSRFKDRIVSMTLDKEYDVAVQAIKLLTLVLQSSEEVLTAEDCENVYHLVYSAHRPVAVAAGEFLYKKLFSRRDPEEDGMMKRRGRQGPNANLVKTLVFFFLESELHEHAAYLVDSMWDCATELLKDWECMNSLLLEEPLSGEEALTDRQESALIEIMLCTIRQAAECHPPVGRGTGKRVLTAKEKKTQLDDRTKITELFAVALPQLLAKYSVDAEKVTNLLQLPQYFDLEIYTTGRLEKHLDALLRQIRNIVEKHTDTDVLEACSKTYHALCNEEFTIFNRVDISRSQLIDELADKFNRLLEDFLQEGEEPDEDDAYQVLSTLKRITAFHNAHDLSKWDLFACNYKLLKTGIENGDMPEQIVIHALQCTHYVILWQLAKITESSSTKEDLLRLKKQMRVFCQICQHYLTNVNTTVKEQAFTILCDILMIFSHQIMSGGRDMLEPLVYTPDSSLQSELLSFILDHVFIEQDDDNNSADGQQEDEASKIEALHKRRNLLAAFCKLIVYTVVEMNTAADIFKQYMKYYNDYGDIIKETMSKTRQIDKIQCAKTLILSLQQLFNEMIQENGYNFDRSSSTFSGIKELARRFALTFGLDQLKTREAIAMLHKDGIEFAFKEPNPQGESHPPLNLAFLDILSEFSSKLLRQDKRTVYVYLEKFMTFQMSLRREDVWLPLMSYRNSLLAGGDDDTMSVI
# Columns and labels:
# [1] = target: T1, GST-Scc1 (281–420)-SA2 (80–1060) …; assay: pull-down; MBP fusion protein as bait, eluted GST-Scc1 (281–420)-SA2 (80–1060) as prey; binding 2 h, three washes of 5 min in P150 buffer; immunoblot for GST; conditions: both partners purified
# [2] = target: T1, GST-Scc1 (281–420)-SA2 (80–1060) …; assay: pull-down; GST-Scc1 (281–420)-SA2 (80–1060) as bait, purified recombinant MBP fusion proteins as prey; immunoblot for MBP; conditions: both partners purified
Binder,binding result [1],binding result [2]
"MBP-CENP-U (1–200) (domain or fragment, human, UniProt Q71F23 1-200, looked up, human CENP-U, residues 1–200; vector pMal-C2E; also called MBP-fused CENP-U (1–200); source: E. coli BL21 (DE3), purified (amylose resin)) MAPRGRRRPRPHRSEGARRSKNTLERTHSMKDKAGQKCKPIDVFDFPDNSDVSSIGRLGENEKDEETYETFDPPLHSTAIYADEEEFSKHCGLSLSSTPPGKEAKRSSDTSGNEASEIESVKISAKKPGRKLRPISDDSESIEESDTRRKVKSAEKISTQRHEVIRTTASSELSEKPAESVTSKKTGPLSAQPSVEKENL",binds,
"MBP-Sgo1 (230–400) (domain or fragment, human, UniProt Q5FBB7 230-400, looked up, human Sgo1, residues 230–400; vector pMal-C2E; also called recombinant MBP-Sgo1 (230–400); source: E. coli BL21 (DE3), purified (amylose resin)) DPLVNMHIPENVQHNACQWSKDQVNLSPKLIQPGTFTKTKEDILESKSEQTKSKQRDTQERKREEKRKANRRKSKRMSKYKENKSENKKTVPQKKMHKSVSSNDAYNFNLEEGVHLTPFRQKVSNDSNREENNESEVSLCESSGSGDDSDDLYLPTCKYIQNPTSNSDRPV",,binds
"MBP-Wapl (1–630) (domain or fragment, human, UniProt Q7Z5K2 1-630, looked up, human Wapl, residues 1–630, with all three FGF motifs; vector pMal-C2E; also called MBP-fused Wapl (1–630); source: E. coli BL21 (DE3), purified (amylose resin; on resin or eluted)) MTSRFGKTYSRKGGNGSSKFDEVFSNKRTTLSTKWGETTFMAKLGQKRPNFKPDIQEIPKKPKVEEESTGDPFGFDSDDESLPVSSKNLAQVKCSSYSESSEAAQLEEVTSVLEANSKISHVVVEDTVVSDKCFPLEDTLLGKEKSTNRIVEDDASISSCNKLITSDKVENFHEEHEKNSHHIHKNADDSTKKPNAETTVASEIKETNDTWNSQFGKRPESPSEISPIKGSVRTGLFEWDNDFEDIRSEDCILSLDSDPLLEMKDDDFKNRLENLNEAIEEDIVQSVLRPTNCRTYCRANKTKSSQGASNFDKLMDGTSQALAKANSESSKDGLNQAKKGGVSCGTSFRGTVGRTRDYTVLHPSCLSVCNVTIQDTMERSMDEFTASTPADLGEAGRLRKKADIATSKTTTRFRPSNTKSKKDVKLEFFGFEDHETGGDEGGSGSSNYKIKYFGFDDLSESEDDEDDDCQVERKTSKKRTKTAPSPSLQPPPESNDNSQDSQSGTNNAENLDFTEDLPGVPESVKKPINKQGDKSKENTRKIFSGPKRSPTKAVYNARHWNHPDSEELPGPPVVKPQSVTVRLSSKEPNQKDDGVFKAPAPPSKVIKTVTIPTQPYQDIVTALKCRREDK",,binds
